Measurements taken from patent US20240034774A1 (Gilead, published 2024).

T1: Human FcγRIIB (human, UniProt P31994 46-217)
T1 construct: also called FcγRIIB/C; FcRIIB/C
T1 sequence (looked up): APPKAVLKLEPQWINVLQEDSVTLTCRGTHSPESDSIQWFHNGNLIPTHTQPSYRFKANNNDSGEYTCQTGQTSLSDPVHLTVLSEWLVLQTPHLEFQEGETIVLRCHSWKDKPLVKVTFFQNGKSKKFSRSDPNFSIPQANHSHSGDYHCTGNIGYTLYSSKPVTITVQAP

T2: Human FcγRIIA-167H (human, UniProt P12318 36-218)
T2 sequence (looked up): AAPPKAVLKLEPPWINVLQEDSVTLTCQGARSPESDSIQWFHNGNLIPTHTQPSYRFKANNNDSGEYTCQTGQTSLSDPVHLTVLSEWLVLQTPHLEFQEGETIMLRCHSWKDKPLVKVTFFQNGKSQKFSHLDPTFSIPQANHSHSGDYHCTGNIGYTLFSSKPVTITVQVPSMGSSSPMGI

T3: Human FcγRIIA-167R (human, UniProt P12318 36-218)
T3 sequence (looked up): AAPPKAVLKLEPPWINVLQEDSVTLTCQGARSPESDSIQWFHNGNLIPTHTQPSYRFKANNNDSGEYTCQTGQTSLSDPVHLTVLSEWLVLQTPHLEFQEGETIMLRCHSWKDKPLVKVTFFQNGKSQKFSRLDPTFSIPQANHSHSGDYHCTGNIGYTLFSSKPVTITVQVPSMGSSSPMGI


Assays:
Cyno FcγRIII = molecular target: T4, Cyno FcγRIII (cynomolgus macaque, UniProt Q8SPW2 17-208); assay: SPR (Biacore 4000), antibody amine coupled to CM4 chip, cyno FcγRIII as analyte, steady-state fit
T4 construct: also called cynomolgus macaque FcγRIII
Experimental: (§1) The in vitro binding dissociation constants (KD) of selected antibodies described herein for human and cynomolgus macaque (cyno) Fc binding receptors (FcγRs, FcRn) were determined using the Biacore 4000 surface plasmon resonace (SPR) biosensor, and either C1 or CM4 sensor chips (GE Healthcare).
(§2) To determine cynomolgus macaque FcγRIIA, FcγRIIB, FcγRIII and FcγRI binding affinities each test antibody was amine coupled to a CM4 sensor chip at two densities (about 100 RU and about 800 RU). Cyno FcγRIIA and FcγRIIB were tested in a two-fold concentration series up to 1 μM. FcγRIII was tested in a two-fold concentration up to 500 nM. Cyno FcγRI was tested for binding using a two-step titration (3 nM and 30 nM). The response data for FcγRIIA, FcγRIIB, FcγRIII at steady-state were fit to a simple binding isotherm. Responses for FcγRI were fit to a simple kinetic model.

Human FcRn [1] = molecular target: T5, Human FcRn (human, UniProt P55899 24-297; P61769 21-119); assay: SPR (Biacore 4000) at pH 7.4, biotinylated FcRn captured on streptavidin C1 chip, antibody as analyte, steady-state fit
T5 construct: also called neonatal Fc-receptor; biotinylated human FcRn
Experimental: as §1
(§3) For human FcRn binding assays, 600 RU of streptavidin was amine coupled to a C1 sensor chip using standard NHS/EDC coupling. The immobilization buffer was PBS+0.005% Tween 20, pH 7.4. Streptavidin was prepared at 50 μg/ml in 10 mM NaAc pH 4.5. Activation, coupling, and blocking steps were run for 10 minutes, each at 10 μl/min. […] Data were collected at pH 6.0 and pH 7.4 in triplicate. The response data at steady-state were fit to a simple binding isotherm.

Cyno FcγRIIA = molecular target: T6, Cyno FcγRIIA (cynomolgus macaque); assay: SPR (Biacore 4000), antibody amine coupled to CM4 chip, cyno FcγRIIA as analyte, steady-state fit
T6 construct: also called cynomolgus macaque FcγRIIA
Experimental: as §1, §2

Human FcγRIIB = molecular target: T1, Human FcγRIIB; assay: SPR (Biacore 4000), FcγRIIB/C amine coupled to CM4 chip, antibody as analyte, steady-state fit
Cyno FcRn [2] = molecular target: T7, Cyno FcRn (cynomolgus macaque, UniProt Q8SPV9 24-297; Q8SPW0 21-119); assay: SPR (Biacore 4000) at pH 6.0, biotinylated cyno FcRn captured on streptavidin C1 chip, antibody as analyte, steady-state fit
T7 construct: also called cynomolgus macaque FcRn; biotinylated cyno FcRn
Experimental: (§4) The in vitro binding dissociation constants (KD) of selected antibodies described herein for human and cynomolgus macaque (cyno) Fc binding receptors (FcγRs, FcRn) were determined using the Biacore 4000 surface plasmon resonace (SPR) biosensor, and either C1 or CM4 sensor chips (GE Healthcare). Biotinylated human FcRn was purchased from Immunitrack. Biotinylated cynomolgus macaque FcRn and human FcγRIIIB-NA1 and FcγRIIIB-NA2 were purchased from Acro Biosystems.
(§5) To determine cynomolgus macaque FcRn binding affinities, 600 RU of streptavidin was amine coupled to a C1 sensor chip using standard NHS/EDC coupling. The immobilization buffer was PBS+0.005% Tween 20, pH 7.4. Streptavidin was prepared at 50 μg/ml in 10 mM NaAc pH 4.5. Activation, coupling, and blocking steps were run for 10 minutes, each at 10 μl/min. Biotinylated cyno FcRn was captured to about 20 RU. Antibodies were tested for binding to the FcRn surface using a two-fold concentration series up to 1 μM. Data were collected at pH 6.0 and pH 7.4 in triplicate. The response data at steady-state were fit to a simple binding isotherm.

Cyno FcRn [3] = molecular target: T7, Cyno FcRn; assay: SPR (Biacore 4000) at pH 7.4, biotinylated cyno FcRn captured on streptavidin C1 chip, antibody as analyte, steady-state fit
Experimental: as §4, §5

Human FcγRIIIB-NA2 = molecular target: T8, Human FcγRIIIB-NA2 (human, UniProt O75015 17-200); assay: SPR (Biacore 4000), antibody amine coupled to CM4 chip, FcγRIIIB as analyte, steady-state fit
T8 construct: also called CD16b NA2

Human FcγRIIIB-NA1 = molecular target: T9, Human FcγRIIIB-NA1 (human, UniProt O75015 17-200); assay: as above
T9 construct: also called CD16b NA1

gp120 REJO = gp120 REJO (HIV)
gp120 CAAN = gp120 CAAN (HIV)
gp120 Bal = gp120 Bal (HIV-1)
Human FcγRIIA-167H = molecular target: T2, Human FcγRIIA-167H; assay: SPR (Biacore 4000), receptor amine coupled to CM4 chip, antibody as analyte, steady-state fit
Human FcγRIIIA-176V = molecular target: T10, Human FcγRIIIA-176V (human, UniProt P08637 17-208); assay: as above
T10 construct: also called CD16a 176V

Human FcγRIIIA-176F = Human FcγRIIIA-176F (human, UniProt P08637 17-208); assay: as above
Human FcγRIIA-167R = molecular target: T3, Human FcγRIIA-167R; assay: as above
Human FcγRI = molecular target: T11, Human FcγRI (human, UniProt P12314 16-288); assay: SPR (Biacore 4000), antibody amine coupled to CM4 chip, FcγRI as analyte (3 and 30 nM), kinetic fit
T11 construct: also called CD64
Experimental: as §4
To determine human FcγRI binding affinities, each test antibody was amine coupled to a CM4 sensor chip at two densities (about 100 RU and about 800 RU). Human FcγRI was tested for binding using a two-step titration series (3 nM and 30 nM). Responses were fit to a simple kinetic model.

Cyno FcγRIIB = molecular target: T12, Cyno FcγRIIB (cynomolgus macaque); assay: SPR (Biacore 4000), antibody amine coupled to CM4 chip, cyno FcγRIIB as analyte, steady-state fit
T12 construct: also called cynomolgus macaque FcγRIIB
Experimental: as §1, §2

Cyno FcγRI = molecular target: T13, Cyno FcγRI (cynomolgus macaque, UniProt A0A2K5U901 33-309); assay: SPR (Biacore 4000), antibody amine coupled to CM4 chip, cyno FcγRI as analyte (3 and 30 nM), kinetic fit
T13 construct: also called cynomolgus macaque FcγRI
Experimental: as §1, §2

Human FcRn [4] = molecular target: T5, Human FcRn; assay: SPR (Biacore 4000) at pH 6.0, biotinylated FcRn captured on streptavidin C1 chip, antibody as analyte, steady-state fit
Experimental: as §1, §3

human C1q protein = molecular target: T14, human C1q protein (human, UniProt P02745 23-245; P02746 28-253; P02747 29-245); assay: C1q binding ELISA, antibody coated on plate, titrated human C1q, anti-C1q-HRP detection, n = 3 assays
T14 construct: also called complement protein C1q
Experimental: A dose response binding ELISA was conducted to determine the relative C1q binding affinity of antibodies described herein. To conduct they assay, a 384-well Maxisorp plate was coated with 25 μl of antibody solution at 5 μg/mL in PBS pH 7.4 overnight at 4° C. Plates were then blocked with 75 μL of 1% BSA in PBS for 2 hours and washed 4 times with PBS+0.05% Tween 20 (PBST). Next, 25 μL of a three-fold serial dilution of human C1q protein in PBS+5% BSA was added to the plates. Plates were incubated with shaking at 600 rpm for one hour, washed 4 times with PBST and then 25 μL of anti-C1q-HRP conjugated polyclonal antibody was added in PBS+5% BSA. Plates were incubated with shaking at 600 rpm for 15 minutes, washed 8 times with PBST and then developed using 3,3′,5,5′-Tetramethylbenzidine (TMB) substrate and quenched with HCl.

Binder | Kd (Cyno FcγRIII) [nM] | Kd (Human FcRn [1]) [nM] | Kd (Cyno FcγRIIA) [nM] | Kd (Human FcγRIIB) [nM] | Kd (Cyno FcRn [2]) [nM] | Kd (Cyno FcRn [3]) [nM] | Kd (Human FcγRIIIB-NA2) [nM] | Kd (Human FcγRIIIB-NA1) [nM] | EC50 (gp120 REJO) [nM] | EC50 (gp120 CAAN) [nM] | EC50 (gp120 Bal) [nM] | Kd (Human FcγRIIA-167H) [nM] | Kd (Human FcγRIIIA-176V) [nM] | Kd (Human FcγRIIIA-176F) [nM] | Kd (Human FcγRIIA-167R) [nM] | Kd (Human FcγRI) [nM] | Kd (Cyno FcγRIIB) [nM] | Kd (Cyno FcγRI) [nM] | Kd (Human FcRn [4]) [nM] | EC50 (human C1q protein) [nM]
Antibody A-1 (antibody, human IgG1, kappa) heavy: QVQLLQSGAAVTKPGASVRVSCEASGYNIRDYFIHWWRQAPGQGLQWVGWINPKTGQPNNPRQFQGRVSLTRHASWDFDTFSFYMDLKALRSDDTAVYFCARQRSDYWDFDVWGSGTQVTVSSASTKGPSVFPLAPSSKSTSGGTAALGCLVKDYFPEPVTVSWNSGALTSGVHTFPAVLQSSGLYSLSSVVTVPSSSLGTQTYICNVNHKPSNTKVDKKVEPKSCDKTHTCPPCPAPELLAGPDVFLFPPKPKDTLMISRTPEVTCVVVDVSHEDPEVKFNWYVDGVEVHNAKTKPREEQYNSTYRVVSVLTVLHQDWLNGKEYKCKVSNKALPLPEEKTISKAKGQPREPQVYTLPPSREEMTKNQVSLTCLVKGFYPSDIAVEWESNGQPENNYKTTPPVLDSDGSFFLYSKLTVDKSRWQQGNVFSCSVLHEALHSHYTQKSLSLSPGK light: DIQMTQSPSSLSASVGDTVTITCQANGYLNWYQQRRGKAPKLLIYDGSKLERGVPSRFSGRRWGQEYNLTINNLQPEDIATYFCQVYEFVVPGTRLDLKRTVAAPSVFIFPPSDEQLKSGTASVVCLLNNFYPREAKVQWKVDNALQSGNSQESVTEQDSKDSTYSLSSTLTLSKADYEKHKVYACEVTHQGLSSPVTKSFNRGEC | 7.1 | 1700 | 1100 | 1600 | 16 | 4300 | 56 | 59 | 2.37 | 2.17 | 0.06 | 131 | 59 | 52 | 130 | 0.002 | 240 | 0.005 | 38 | –
Antibody A (antibody, human IgG1, kappa) heavy: not shown light: DIQMTQSPSSLSASVGDTVTITCQANGYLNWYQQRRGKAPKLLIYDGSKLERGVPSRFSGRRWGQEYNLTINNLQPEDIATYFCQVYEFVVPGTRLDLKRTVAAPSVFIFPPSDEQLKSGTASVVCLLNNFYPREAKVQWKVDNALQSGNSQESVTEQDSKDSTYSLSSTLTLSKADYEKHKVYACEVTHQGLSSPVTKSFNRGEC | 200 | 42000 | 2000 | 11000 | 1100 | 12800 | 1500 | 2000 | 2.21 | 1.84 | 0.05 | 1800 | 670 | 2300 | 3000 | 0.107 | 895 | 0.038 | 485 | 2.2
Antibody 1.52.64-1 (antibody, human IgG1, kappa) heavy: QVQLLQSGAAVTKPGASVRVSCEASGYNIRDYFIHWWRQAPGQGLQWVGWINPKTGQPNNPRQFQGRVSLTRHASFDFDTFSFYMDLKALRSDDTAVYFCARQRSDYWDFDVWGSGTQVTVSSASTKGPSVFPLAPSSKSTSGGTAALGCLVKDYFPEPVTVSWNSGALTSGVHTFPAVLQSSGLYSLSSVVTVPSSSLGTQTYICNVNHKPSNTKVDKKVEPKSCDKTHTCPPCPAPELLAGPDVFLFPPKPKDTLMISRTPEVTCVVVDVSHEDPEVKFNWYVDGVEVHNAKTKPREEQYNSTYRVVSVLTVLHQDWLNGKEYKCKVSNKALPLPEEKTISKAKGQPREPQVYTLPPSREEMTKNQVSLTCLVKGFYPSDIAVEWESNGQPENNYKTTPPVLDSDGSFFLYSKLTVDKSRWQQGNVFSCSVLHEALHSHYTQKSLSLSPGK light: DIQMTQSPSSLSASVGDTATITCQANGYLNWYQQRRGKAPKLLIYDGSKLERGVPSRFSGRRWGQEYNLTINNLQPEDIATYFCQVYEFVVPGTRLDLKRTVAAPSVFIFPPSDEQLKSGTASVVCLLNNFYPREAKVQWKVDNALQSGNSQESVTEQDSKDSTYSLSSTLTLSKADYEKHKVYACEVTHQGLSSPVTKSFNRGEC | 8 | 1120 | 1180 | 1900 | 22 | 5300 | 55 | 64 | 4.02 | 3.79 | 0.07 | 221 | 67 | 63 | 199 | 0.0012 | 280 | 0.005 | 49 | –
